Measurements: US20100015126A1, “Methods of Binding of Cross-Beta Structures By Chaperones” (priority 2006, published 2010)

What was measured:
human BiP [1] = target: T1, human BiP (Homo sapiens, UniProt P11021); test: ELISA: inhibition of BiP binding to crossbeta structure with tPA; conditions: threefold diluted supernatant; 10 mM ε-amino caproic acid; no competitor
T1 construct: The human BiP gene except the signal peptide encoding region was obtained from Geneart (Germany); linker […]; made in house; host or cells: HEK 293E cells, transient transfection, PABC674 vector; secreted into the medium
Text: The threefold diluted cell supernatants were applied to the ELISA plate in duplicates and BiP binding was subsequently measured as described above. Coat efficiency was checked with specific anti-AGE antibody, anti-albumin antibody and anti-Hb antibody.

[2] = Transmission electron microscopy (TEM); type: physicochemical; conditions: for Appearance on TEM images: magnification 10K; for TEM: 2.5 mg/ml peptide stocks
Method: Transmission Electron Microscopy (TEM)
TEM images were collected using a Jeol 1200 EX transmission electron microscope (Jeol Ltd., Tokyo, Japan) at an excitation voltage of 80 kV. For each sample, the formvar and carbon-coated side of a 100-mesh copper or nickel grid was positioned on a 5 μl drop of protein solution for 5 minutes. Afterwards, it was positioned on a 100 μl drop of PBS for 2 minutes, followed by three 2-minute incubations with a 100 μl drop of distilled water. The grids were then stained for 2 minutes with a 100 μl drop of 2% (m/v) methylcellulose with 0.4% uranyl acetate pH 4. Excess fluid was removed by streaking the side of the grids over filter paper, and the grids were subsequently dried under a lamp. Samples were analysed at a magnification of 10K.

human BiP [3] = target: T1, human BiP; test: Competition ELISA: BiP binding to misfolded proteins under influence of crossbeta binding compounds; conditions: for Influence on interaction of BiP with misfolded proteins comprising crossbeta structure (summary in words): BiP binding without compound set to 100%
How it was run: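 Misfolded protein ligands were coated in pH 9.6 bicarbonate, typically at 5 μg/ml. A fixed sub-optimal BiP concentration was incubated for 1 h at room temperature with crossbeta-binding compound series, and bound BiP was detected by peroxidase antibodies with TMB read at 450 nm. Signals were background-subtracted, and binding without compound was set to 100%.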

[4] = target: T2, human mitochondrial HSP60 (Homo sapiens, UniProt P10809); test: Competition ELISA: HSP60 binding under influence of ThT or Congo red; conditions: concentration series of compound
T2 construct: Dr. W. van Eden, Utrecht University; host or cells: E. coli

[5] = fixed sub-optimal BiP concentration, 10 mM ε-amino caproic acid

T1 sequence (P11021 19-654): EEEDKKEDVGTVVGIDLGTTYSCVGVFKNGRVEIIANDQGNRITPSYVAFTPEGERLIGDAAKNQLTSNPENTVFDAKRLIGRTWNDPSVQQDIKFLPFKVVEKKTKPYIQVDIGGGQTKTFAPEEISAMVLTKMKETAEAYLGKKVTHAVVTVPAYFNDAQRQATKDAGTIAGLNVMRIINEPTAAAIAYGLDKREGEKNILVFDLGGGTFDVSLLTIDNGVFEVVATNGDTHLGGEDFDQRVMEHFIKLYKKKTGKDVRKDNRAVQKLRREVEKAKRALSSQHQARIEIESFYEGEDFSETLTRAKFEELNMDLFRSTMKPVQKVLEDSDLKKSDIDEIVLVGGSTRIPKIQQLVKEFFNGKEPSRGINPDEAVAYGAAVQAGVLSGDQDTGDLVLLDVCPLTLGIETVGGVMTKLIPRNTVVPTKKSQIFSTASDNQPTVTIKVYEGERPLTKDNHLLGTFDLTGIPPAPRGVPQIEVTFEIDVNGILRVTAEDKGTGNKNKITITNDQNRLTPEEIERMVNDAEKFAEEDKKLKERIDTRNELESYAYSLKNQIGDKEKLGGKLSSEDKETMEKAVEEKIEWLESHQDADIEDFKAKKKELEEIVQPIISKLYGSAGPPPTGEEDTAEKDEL
T2 sequence (P10809 27-573): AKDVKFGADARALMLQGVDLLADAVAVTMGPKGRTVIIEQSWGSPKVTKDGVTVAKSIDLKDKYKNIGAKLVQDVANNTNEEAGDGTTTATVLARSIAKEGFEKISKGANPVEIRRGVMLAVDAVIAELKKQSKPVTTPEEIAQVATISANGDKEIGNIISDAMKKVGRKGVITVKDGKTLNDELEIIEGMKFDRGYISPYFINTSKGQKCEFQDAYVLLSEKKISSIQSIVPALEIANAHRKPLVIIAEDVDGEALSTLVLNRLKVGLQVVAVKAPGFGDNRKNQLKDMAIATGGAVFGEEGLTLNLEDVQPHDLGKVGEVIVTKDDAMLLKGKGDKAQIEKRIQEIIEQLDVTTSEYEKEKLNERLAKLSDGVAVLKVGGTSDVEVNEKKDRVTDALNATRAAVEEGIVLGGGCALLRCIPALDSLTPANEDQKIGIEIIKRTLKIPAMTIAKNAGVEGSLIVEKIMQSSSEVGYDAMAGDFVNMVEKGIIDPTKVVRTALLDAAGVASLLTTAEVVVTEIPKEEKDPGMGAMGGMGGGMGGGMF

**Q.** Which “Binding of BiP to coated ligand” value (human BiP [1]) does the source give for “native BSA: non-modified bovine serum albumin control” here?
**A.** hardly

**Q.** Which “Appearance on TEM images” value [2] does the source give for BSA-AGE here?
**A.** non-fibrillar amorphous aggregates

**Q.** What about the “Binding of BiP to coated ligand” value (human BiP [1]) of the same compound?
**A.** binds

**Q.** With AGEYYAAL [6BB7] as the compound, how does the TEM [2] read?
**A.** Very few small

**Q.** Which TEM [2] does the source give for GSNKGAIIGLM [6BB6, Human Aβ (25-35)] here?
**A.** Thin aggregated

**Q.** What about the “Influence of K2P tPA on interaction of BiP with misfolded protein” value (human BiP [3]; [5]) of the same compound?
**A.** −

**Q.** And the “Influence of tPA on interaction of BiP with misfolded protein” value (human BiP [3]; [5])?
**A.** ↓ (a ↓ sign refers to inhibited abolished binding of BiP)

**Q.** And the “Influence of IgIV on interaction of BiP with misfolded protein” value (human BiP [3]; fixed sub-optimal BiP concentration, IgIV Octagam series)?
**A.** ↓ (a ↓ sign refers to inhibited abolished binding of BiP)

**Q.** And the “Influence of Congo red on interaction of BiP with misfolded protein” value (human BiP [3]; fixed sub-optimal BiP concentration, concentration series of Congo red)?
**A.** ↓ (a ↓ sign refers to inhibited abolished binding of BiP)

**Q.** And the “Influence of ThS on interaction of BiP with misfolded protein” value (human BiP [3]; fixed sub-optimal BiP concentration, concentration series of ThS)?
**A.** −

**Q.** Which “Binding of HSP60 to Aβ42 under influence of compound” value ([4]; 10 or 30 μg/ml HSP60) does the source give for Nc1c(/N=N/c2ccc(-c3ccc(/N=N/c4cc(S(=O)(=O)O)c5ccccc5c4N)cc3)cc2)cc(S(=O)(=O)O)c2ccccc12 [Congo red] here?
**A.** inhibit

**Q.** What about the “Binding of HSP60 to BSA-AGE under influence of compound” value ([4]; 10 or 30 μg/ml HSP60) of the same compound?
**A.** inhibited

**Q.** What about the “Influence on interaction of BiP with misfolded proteins comprising crossbeta structure (summary in words)” value (human BiP [3]) of the same compound?
**A.** general inhibitors

**Q.** With “Hb: non-modified human haemoglobin control” as the compound, how does the “Binding of BiP to coated ligand” value (human BiP [1]) read?
**A.** some binding

**Q.** With Cc1ccc2c(c1)sc(-c1ccc(N(C)C)cc1)[n+]2C.[Cl-] [ThT, Thioflavin T] as the compound, how does the “Binding of HSP60 to misfolded IgIV (dIgIV-86) under influence of compound” value ([4]; 10 μg/ml HSP60) read?
**A.** stimulates

**Q.** What about the “Binding of HSP60 to Aβ42 under influence of compound” value ([4]; 10 or 30 μg/ml HSP60) of the same compound?
**A.** inhibit

**Q.** And the “Influence on interaction of BiP with misfolded proteins comprising crossbeta structure (summary in words)” value (human BiP [3])?
**A.** can either potentiate BiP binding, or inhibit

**Q.** With “HbAGE: human haemoglobin glycated with glucose-6-phosphate for 75 weeks” as the compound, how does the “Appearance on TEM images” value [2] read?
**A.** non-fibrillar amorphous aggregates

**Q.** For KLVFFAE [6BB12, Human Aβ16-22], which TEM [2] is on record?
**A.** Large dense clusters
